# Results: the supplement of paper PMC9112550, “Optimization of the antimicrobial peptide Bac7 by deep mutational scanning” (BMC Biology, 2022)
# Tested on: Escherichia coli TOP10
# Test: shrunken log2 fold change of peptide-encoding DNA abundance (4.5 h post-induction vs induction); higher = less antimicrobial activity (less host growth inhibition)
# Conditions: time post-induction: 4.5 h; library: site-saturation at positions 5, 18, 19, 20
# 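Further: peptides expressed intracellularly from a pBAD plasmid library in pooled LB shake-flask culture, induced with 0.3% L-arabinose, DNA abundance read by NGS, three biological replicates, DESeq2 with apeglm shrinkage.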
row,Sequence,shrunken log2 fold change
1,RRIRSRPPRLPRPRPRPWQKPRP,0.14
2,RRIRYRPPRLPRPRPRPNNWPRP,-0.398
3,RRIRCRPPRLPRPRPRPNVWPRP,0.0481
4,RRIRSRPPRLPRPRPRPHSQPRP,0.0681
5,RRIRTRPPRLPRPRPRPCIYPRP,-0.264
6,RRIRGRPPRLPRPRPRPWWCPRP,0.127
7,RRIRPRPPRLPRPRPRPYDQPRP,-0.15
8,RRIRIRPPRLPRPRPRPRLKPRP,0.0139
9,RRIRYRPPRLPRPRPRPPSFPRP,0.0588
10,RRIRLRPPRLPRPRPRPGPDPRP,0.953
11,RRIRLRPPRLPRPRPRPIKVPRP,-0.135
12,RRIRNRPPRLPRPRPRPNFPPRP,-0.0305
13,RRIRTRPPRLPRPRPRPQWTPRP,-1.27
14,RRIRSRPPRLPRPRPRPLGTPRP,-0.216
15,RRIRCRPPRLPRPRPRPGRAPRP,0.453
16,RRIRLRPPRLPRPRPRPQFNPRP,-0.57
17,RRIRQRPPRLPRPRPRPTDFPRP,-0.122
18,RRIRQRPPRLPRPRPRPFFGPRP,6.44e-05
19,RRIRERPPRLPRPRPRPPSCPRP,0.103
20,RRIRMRPPRLPRPRPRPQVSPRP,0.399
21,RRIRIRPPRLPRPRPRPTIRPRP,-0.995
22,RRIRKRPPRLPRPRPRPVQQPRP,0.368
23,RRIRWRPPRLPRPRPRPMCHPRP,-0.115
24,RRIRCRPPRLPRPRPRPSTNPRP,-0.911
25,RRIRPRPPRLPRPRPRPEALPRP,0.439

row,Sequence,shrunken log2 fold change
1,RRIRNRPPRLPRPRPRPFIKPRP,-0.473
2,RRIRTRPPRLPRPRPRPQPCPRP,-0.0212
3,RRIRARPPRLPRPRPRPPWDPRP,0.72
4,RRIRKRPPRLPRPRPRPPQWPRP,1.37
5,RRIRRRPPRLPRPRPRPAHMPRP,0.405
6,RRIRDRPPRLPRPRPRPLWTPRP,0.163
7,RRIRHRPPRLPRPRPRPEVFPRP,-0.0194
8,RRIRSRPPRLPRPRPRPWVRPRP,0.0976
9,RRIRRRPPRLPRPRPRPVKRPRP,0.457
10,RRIRDRPPRLPRPRPRPKRWPRP,0.0314
11,RRIRLRPPRLPRPRPRPAMPPRP,0.234
12,RRIRTRPPRLPRPRPRPPEQPRP,0.151
13,RRIRYRPPRLPRPRPRPIMEPRP,-0.0134
14,RRIRFRPPRLPRPRPRPDDLPRP,0.00489
15,RRIRYRPPRLPRPRPRPYMHPRP,0.0498
16,RRIRIRPPRLPRPRPRPRQQPRP,0.0393
17,RRIRPRPPRLPRPRPRPTWGPRP,0.593
18,RRIRSRPPRLPRPRPRPIIAPRP,-0.0683
19,RRIRGRPPRLPRPRPRPRYNPRP,-0.0667
20,RRIRYRPPRLPRPRPRPHEKPRP,-0.00489
21,RRIRMRPPRLPRPRPRPAVEPRP,0.741
22,RRIRYRPPRLPRPRPRPSRIPRP,0.0535
23,RRIRVRPPRLPRPRPRPRNYPRP,-0.567
24,RRIRARPPRLPRPRPRPLHHPRP,-0.0724
25,RRIRRRPPRLPRPRPRPTVIPRP,-0.168
